The data set deals with the molecule itself. Put plainly: Self-association (oligomer dissociation), inferred from FCS translational diffusion at about 1 nM dsRed. An excerpt: Fluorescence was collected through the same objective, a dichroic mirror, and 525+/−50 nm (citrine) or 580+/−50 nm (dsRed) filters and focused by a 150-mm achromat into an optical fiber ([…]). The fluorescence signal was detected by a fiber-coupled avalanche photodiode (APD; SPCM-AQ-141-FC; EG & G, Salem, Mass.). The APD signal was processed by using a correlator card (ALV5000; ALV Laser, Germany), and correlation curves were fitted by using the following function (Schwille et al., supra, 2000):
Within experimental uncertainty, our estimated rotational time (i.e., protein volume) agrees with the tetramer hypothesis of dsRed configuration.

B1: Discosoma red fluorescent protein, dsRed (other)
chain: MRSSKNVIKEFMRFKVRMEGTVNGHEFEIEGEGEGRPYEGHNTVKLKVTKGGPLPFAWDILSPQFQYGSKVYVKHPADIPDYKKLSFPEGFKWERVMNFEDGGVVTVTQDSSLQDGCFIYKVKFIGVNFPSDGPVMQKKTMGWEASTERLYPRDGVLKGEIHKALKLKDGGHYLVEFKSIYMAKKPVQLPGYYYVDSKLDITSHNEDYTIVEQYERTEGRHHLFL
notes: Wild-type dsRed (CLONTECH DNA) cloned into pRSETB, made in JM109(DE3) E. coli and purified on NiNTA-agarose; The entries describe self-association of dsRed subunits; also called red fluorescent protein (dsRed) from coral; not shown: N-terminal tag from vector pRSETB (protein purified by nickel chelate chromatography)
As a reminder, the Kd is the free concentration of one partner at which half of the binding sites on the other are occupied at equilibrium, for simple one-to-one binding. A low value points to higher affinity. In turn, B1 had a Kd of no more than 1 nM.

The record behind these values is patent US20020157120A1 (University of California, published 2002).
